# Reference: patent US9468682B2, “Compositions and methods for enhancing penetration of biologically active substances into tissues or organs” (Joint-stock company “High Tech”, priority 2013, dated 2016)
# Legend:
# [1] = Delivery through skin and mucous membranes in animals; format: in vivo; conditions: with ammonium sulfate; rats and guinea pigs
# [2] = Franz diffusion cell skin permeability for insulin, antibiotics and mesotherapy components; conditions: FIG. 1; donor insulin 5 IU/ml or 0.25 mg/ml; HPLC
# From the text: The receptor solution aliquots were collected at different intervals and analyzed using HPLC.
# [3] = In vitro skin permeability, Franz diffusion cell, 3H-labeled substances; conditions: Table 4
# Description: The vertical Franz diffusion cell was used (PermeGear, Bethlehem, USA) with the effective diffusion surface of 2 cm^2.
# The experiments were carried out using the skin of male species of Sprague-Dawley rats, weight 110-120 g, taken from the front abdominal wall. Hair and adipose tissue were removed from the skin; the skin was soaked in normal saline and placed into the diffusion cell. The following solutions labeled with ^3H in accordance with the standard method (Klimova et. al. 1993) were added into the donor chamber: complex of collagenolytic digestive protease from hydrobionts (Fermencol™, Table 3), Fe-superoxide dismutase from E. coli (Table 4) and fragments of rRNA 25-55 bases in length (Table 5).
molecule,measurement,setting,value
insulin,Delivery through skin and mucous membranes,[1],Positive results
same,Effect of further increase of ammonium sulfate concentration on insulin diffusion from donor to acceptor solution,[2],does not influence the effectiveness of insulin diffusion
"Fe-superoxide dismutase from E. coli: Fe-superoxide dismutase from E. coli, labeled with 3H (protein, UniProt P0AGD3 2-193, looked up, tritium (3H) label) Superoxide dismutase [Fe]: SFELPALPYAKDALAPHISAETIEYHYGKHHQTYVTNLNNLIKGTAFEGKSLEEIIRSSEGGVFNNAAQVWNHTFYWNCLAPNAGGEPTGKVAEAIAASFGSFADFKAQFTDAAIKNFGSGWTWLVKNSDGKLAIVSTSNAGTPLTTDATPLLTVDVWEHAYYIDYRNARPGYLEHFWALVNWEFVAKNLAA","^3H-labeled marker in receptor medium, % from initial","[3]; ammonium sulfate 0 M in donor medium, incubation 10 hrs",0.01%
same,"^3H-labeled marker in receptor medium, % from initial","[3]; ammonium sulfate 0 M in donor medium, incubation 20 hrs",0.05%
same,"^3H-labeled marker in receptor medium, % from initial","[3]; ammonium sulfate 0 M in donor medium, incubation 30 hrs",0.07%
same,"^3H-labeled marker in receptor medium, % from initial","[3]; ammonium sulfate 0 M in donor medium, incubation 40 hrs",0.11%
same,"^3H-labeled marker in receptor medium, % from initial","[3]; ammonium sulfate 0 M in donor medium, incubation 60 hrs",0.34%
same,"^3H-labeled marker in receptor medium, % from initial","[3]; ammonium sulfate 0.1 M in donor medium, incubation 10 hrs",5.31%
same,"^3H-labeled marker in receptor medium, % from initial","[3]; ammonium sulfate 0.1 M in donor medium, incubation 20 hrs",10.00%
same,"^3H-labeled marker in receptor medium, % from initial","[3]; ammonium sulfate 0.1 M in donor medium, incubation 30 hrs",12.06%
same,"^3H-labeled marker in receptor medium, % from initial","[3]; ammonium sulfate 0.1 M in donor medium, incubation 40 hrs",17.99%
same,"^3H-labeled marker in receptor medium, % from initial","[3]; ammonium sulfate 0.1 M in donor medium, incubation 60 hrs",20.11%
same,"^3H-labeled marker in receptor medium, % from initial","[3]; ammonium sulfate 0.2 M in donor medium, incubation 10 hrs",5.67%
same,"^3H-labeled marker in receptor medium, % from initial","[3]; ammonium sulfate 0.2 M in donor medium, incubation 20 hrs",12.56%
same,"^3H-labeled marker in receptor medium, % from initial","[3]; ammonium sulfate 0.2 M in donor medium, incubation 30 hrs",17.90%
same,"^3H-labeled marker in receptor medium, % from initial","[3]; ammonium sulfate 0.2 M in donor medium, incubation 40 hrs",27.60%
same,"^3H-labeled marker in receptor medium, % from initial","[3]; ammonium sulfate 0.2 M in donor medium, incubation 60 hrs",35.11%
same,"^3H-labeled marker in receptor medium, % from initial","[3]; ammonium sulfate 0.5 M in donor medium, incubation 10 hrs",7.80%
same,"^3H-labeled marker in receptor medium, % from initial","[3]; ammonium sulfate 0.5 M in donor medium, incubation 20 hrs",10.81%
same,"^3H-labeled marker in receptor medium, % from initial","[3]; ammonium sulfate 0.5 M in donor medium, incubation 30 hrs",16.94%
same,"^3H-labeled marker in receptor medium, % from initial","[3]; ammonium sulfate 0.5 M in donor medium, incubation 40 hrs",31.00%
same,"^3H-labeled marker in receptor medium, % from initial","[3]; ammonium sulfate 0.5 M in donor medium, incubation 60 hrs",35.30%
same,"^3H-labeled marker in receptor medium, % from initial","[3]; ammonium sulfate 1.0 M in donor medium, incubation 10 hrs",7.67%
same,"^3H-labeled marker in receptor medium, % from initial","[3]; ammonium sulfate 1.0 M in donor medium, incubation 20 hrs",10.33%
same,"^3H-labeled marker in receptor medium, % from initial","[3]; ammonium sulfate 1.0 M in donor medium, incubation 30 hrs",16.74%
same,"^3H-labeled marker in receptor medium, % from initial","[3]; ammonium sulfate 1.0 M in donor medium, incubation 40 hrs",31.00%
same,"^3H-labeled marker in receptor medium, % from initial","[3]; ammonium sulfate 1.0 M in donor medium, incubation 60 hrs",35.11%
